Target: TDG (recombinant murine TDG) (Mus musculus, UniProt P56581 1-421)
Test: competition; competes TDG-Sra1 and TDG-Neat1 complexes; higher affinity than lncRNA; BER buffer: 50 mM HEPES pH 8.0, 70 mM KCl, 0.5 mg/mL BSA, 7 mM MgCl2, 1 mM DTT, RNase inhibitor; RT, 15 min (buffer stated for lncRNA EMSA; 60 bp EMSA: 2 µM TDG, 2 µM substrate, RT 15 min)
Conditions: protein: recombinant; blunt, one G·U mismatch

Sequence of TDG (recombinant murine TDG) (P56581 whole entry): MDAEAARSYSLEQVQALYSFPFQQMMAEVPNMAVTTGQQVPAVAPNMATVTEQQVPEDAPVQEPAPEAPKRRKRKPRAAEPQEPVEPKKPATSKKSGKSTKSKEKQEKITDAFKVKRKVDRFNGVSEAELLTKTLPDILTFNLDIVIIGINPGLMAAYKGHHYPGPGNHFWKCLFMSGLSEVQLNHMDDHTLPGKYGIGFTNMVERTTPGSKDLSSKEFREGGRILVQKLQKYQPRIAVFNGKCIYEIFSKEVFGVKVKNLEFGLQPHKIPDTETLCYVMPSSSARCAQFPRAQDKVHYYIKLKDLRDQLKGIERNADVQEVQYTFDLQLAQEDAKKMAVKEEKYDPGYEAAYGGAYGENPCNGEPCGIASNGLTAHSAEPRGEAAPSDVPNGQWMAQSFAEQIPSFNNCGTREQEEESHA

B1: Subs60 G·U (unlabeled competitor) (dsDNA)
DNA 1: TAGACATTGCCCTCGAGGTACCATGGATCCGATGTCGACCTCAAACCTAGACGAATTCCG
DNA 2: CGGAATTCGTCTAGGTTTGAGGTUGACATCGGATCCATGGTACCTCGAGGGCAATGTCTA
modifications: dU at position 24 of strand 2
  binding result: binds
